Like-named read-outs stand apart in the source and are kept apart here. *1 amine or outer side, *2 acyl side, *3 side chain or, on linkers, in order; H or OH if unused. Where no end group is shown, it is not given here. The star is where a group is joined. γGlu = O=C(O)[C@H](CCC(=O)[*:2])N[*:1]; Stearoyl = CCCCCCCCCCCCCCCCCC(=O)*; Lauroyl = CCCCCCCCCCCC(=O)*; NPEG4 = not defined here; Ava = NCCCCC(=O)O; GABA = NCCCC(=O)O
B1: FA-linked dimeric ligand 9 (peptide)
peptide: IETAV
modifications: not fully specified; also: dimer: N-termini of two peptides joined through NPEG4 linker
notes: Synthetic dimer NPEG4(IETAV)2 with fatty acid on the linker nitrogen; also called compound 9
B2: FA-linked dimeric ligand 12 (peptide)
peptide: {C17:0‑COOH acyl-Ava-NPEG4}-IETAV
modifications: not fully specified; reading uncertain; also: dimer: two chains joined at N-termini through NPEG4, linker taken from rows above (blank cell)
notes: Synthetic dimer NPEG4(IETAV)2 with fatty acid on the linker nitrogen; also called compound 12
B3: FA-linked dimeric ligand 11 (peptide)
peptide: {Stearoyl-Ava-NPEG4}-IETAV
modifications: not fully specified; reading uncertain; also: dimer: two chains joined at N-termini through NPEG4, linker taken from rows above (blank cell)
notes: Synthetic dimer NPEG4(IETAV)2 with fatty acid on the linker nitrogen; also called compound 11
B4: FA-linked dimeric ligand 10 (peptide)
peptide: {C11:0‑COOH acyl-Ava-NPEG4}-IETAV
modifications: not fully specified; reading uncertain; also: dimer: two chains joined at N-termini through NPEG4, linker taken from row above (blank cell)
notes: Synthetic dimer NPEG4(IETAV)2 with fatty acid on the linker nitrogen; also called compound 10
B5: FA-linked dimeric ligand 5 (peptide)
peptide: {Lauroyl-γGlu-NPEG4}-IETAV
modifications: not fully specified; reading uncertain; also: dimer: two chains joined at N-termini through NPEG4
notes: Synthetic dimer NPEG4(IETAV)2 with fatty acid on the linker nitrogen; also called compound 5
B6: FA-linked dimeric ligand 8 (peptide)
peptide: {C17:0‑COOH acyl-γGlu-NPEG4}-IETAV
modifications: not fully specified; reading uncertain; also: dimer: two chains joined at N-termini through NPEG4, linker taken from rows above (blank cell)
notes: Synthetic dimer NPEG4(IETAV)2 with fatty acid on the linker nitrogen; also called compound 8
B7: FA-linked dimeric ligand 6 (peptide)
peptide: {C11:0‑COOH acyl-γGlu-NPEG4}-IETAV
modifications: not fully specified; reading uncertain; also: dimer: two chains joined at N-termini through NPEG4, linker taken from row above (blank cell)
notes: Synthetic dimer NPEG4(IETAV)2 with fatty acid on the linker nitrogen; also called compound 6
B8: FA-linked dimeric ligand 4 (peptide)
peptide: {C17:0‑COOH acyl-GABA-NPEG4}-IETAV
modifications: not fully specified; reading uncertain; also: dimer: two chains joined at N-termini through NPEG4
notes: Synthetic dimer NPEG4(IETAV)2 with fatty acid on the linker nitrogen; also called compound 4
B9: FA-linked dimeric ligand 2 (peptide)
peptide: {C11:0‑COOH acyl-GABA-NPEG4}-IETAV
modifications: not fully specified; reading uncertain; also: dimer: two chains joined at N-termini through NPEG4, linker taken from row above (blank cell)
notes: Synthetic dimer NPEG4(IETAV)2 with fatty acid on the linker nitrogen; also called compound 2
B10: UCCB01-125 (peptide)
peptide: IETAV
modifications: also: dimer: two peptides joined by a linker, no fatty acid
notes: also called dimeric ligand UCCB01-125
B11: FA-linked dimeric ligand 3 (peptide)
peptide: {Stearoyl-GABA-NPEG4}-IETAV
modifications: not fully specified; reading uncertain; also: dimer: two chains joined at N-termini through NPEG4
notes: Synthetic dimer NPEG4(IETAV)2 with fatty acid on the linker nitrogen; also called compound 3
B12: FA-linked dimeric ligand 7 (peptide)
peptide: {Stearoyl-γGlu-NPEG4}-IETAV
modifications: not fully specified; reading uncertain; also: dimer: two chains joined at N-termini through NPEG4
notes: Synthetic dimer NPEG4(IETAV)2 with fatty acid on the linker nitrogen; also called compound 7
B13: FA-linked dimeric ligand 1 (peptide)
peptide: {Lauroyl-GABA-NPEG4}-IETAV
modifications: not fully specified; reading uncertain; also: dimer: two chains joined at N-termini through NPEG4
notes: Synthetic dimer NPEG4(IETAV)2 with fatty acid on the linker nitrogen; also called compound 1
B14: FA-linked dimeric ligand 13 (peptide)
peptide: {Stearoyl-GABA-NPEG4}-IETDV
modifications: not fully specified; reading uncertain; also: dimer: two chains joined at N-termini through NPEG4
notes: IETDV analogue of compound 3, synthesized analogously to 1-12; also called compound 13

How the values were obtained:
Human Serum Albumin [1] = target: T1, Human Serum Albumin (human, UniProt P02768 25-609); experiment: calculated from KD at 588 µM HSA (equation 2)
T1 construct: Bought reagent; also called HSA
Experimental: (§1) The assay kit consisted of prefilled wells with increasing concentrations of immobilized HSA as well as two control wells without HSA. The HSA had been immobilized in a random fashion to ensure that all binding sites on HSA were available. To conduct the assay, the wells were incubated with a known concentration of the tested compounds, and the unbound amount of compound was quantified using analytical RP-HPLC (C8 column). The fraction of unbound drug (fᵤ) for each data point was calculated from the RP-HPLC data by comparison to a control sample without HSA.

PSD-95 PDZ1-2 [2] = target: T2, PSD-95 PDZ1-2 (UniProt P78352 61-249, limits assumed); experiment: FP competition vs dimeric fluorescent probe, TBS + 1% HSA (apparent)
T2 construct: domain: PDZ1-2; also called PDZ1-2 of PSD-95
T2 sequence (P78352 61-249 limits assumed): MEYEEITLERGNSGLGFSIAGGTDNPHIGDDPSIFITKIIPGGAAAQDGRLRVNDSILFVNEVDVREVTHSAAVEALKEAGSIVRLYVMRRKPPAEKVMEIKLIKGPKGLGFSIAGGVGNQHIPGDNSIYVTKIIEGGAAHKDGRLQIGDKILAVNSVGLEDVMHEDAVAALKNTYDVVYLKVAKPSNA

Human Serum Albumin [3] = target: T1, Human Serum Albumin; experiment: calculated from KD(HSA) at 150 µM HSA (equation 2)
Human Serum Albumin [4] = target: T1, Human Serum Albumin; experiment: Transil XL HSA binding kit (immobilized HSA), unbound compound by RP-HPLC
Experimental: as §1

PSD-95 PDZ1-2 [5] = target: T2, PSD-95 PDZ1-2; experiment: FP competition vs dimeric fluorescent probe, TBS
PSD-95 PDZ1-2 [6] = target: T2, PSD-95 PDZ1-2; experiment: FP competition, TBS + 1% HSA, corrected for fu (free ligand)
Experimental: (§2) The FP values were fitted to a one site competition (variable slope) model in GraphPad Prism. […] The modified FP assay was conducted as described above with 1% HSA in the assay.

PSD-95 PDZ1-2 [7] = target: T2, PSD-95 PDZ1-2; experiment: FP competition, TBS + 1% HSA
Experimental: as §2
The synthesized FA-linked dimeric ligands were evaluated for their affinity to PSD-95 PDZ1-2 in the FP assay.

PSD-95 PDZ1-2 [8] = target: T2, PSD-95 PDZ1-2; experiment: FP competition, TBS + 1% HSA, corrected for fu (free ligand); remark: listed apart in the source
PSD-95 PDZ1-2 [9] = target: T2, PSD-95 PDZ1-2; experiment: FP competition vs dimeric fluorescent probe, TBS + 1% HSA (apparent); remark: listed apart in the source
Experimental: as §2

Human Serum Albumin [10] = target: T1, Human Serum Albumin; experiment: Transil XL HSA binding kit (immobilized HSA), unbound compound by RP-HPLC; remark: listed apart in the source
Experimental: as §1

PSD-95 PDZ1-2 [11] = target: T2, PSD-95 PDZ1-2; experiment: FP competition vs dimeric fluorescent probe, TBS; remark: listed apart in the source
Human Serum Albumin [12] = target: T1, Human Serum Albumin; experiment: calculated from KD(HSA) at 150 µM HSA (equation 2); remark: listed apart in the source

Binder | fb (%), fraction bound to HSA (Human Serum Albumin [1]) [%] | Ki (PSD-95 PDZ1-2 [2]) [nM] | fu (%), fraction unbound (Human Serum Albumin [3]) [%] | Kd (Human Serum Albumin [4]) [nM] | Ki (PSD-95 PDZ1-2 [5]) [nM] | Ki (PSD-95 PDZ1-2 [6]) [nM] | fold lower apparent affinity than the dimeric ligands linked to the shorter FAs (C12:0 or C11:0-COOH) (PSD-95 PDZ1-2 [7]) [fold] | fold affinity loss in TBS+HSA (PSD-95 PDZ1-2 [7]) [fold] | Ki (PSD-95 PDZ1-2 [8]) [nM] | Ki (PSD-95 PDZ1-2 [9]) [nM] | Kd (Human Serum Albumin [10]) [nM] | Ki (PSD-95 PDZ1-2 [11]) [nM] | fu (%), fraction unbound (Human Serum Albumin [12]) [%]
B1 | 91.4 | 13.4 | 27.1 | 55700 | 20.5 | 2.6 |  |  |  |  |  |  | 
B2 | 96.2 | 2930 | 8.3 | 23500 | 11.5 | 250 | > 50 |  |  |  |  |  | 
B3 | 97.9 | 1890 | 7.8 | 12700 | 26.5 | 16.8 | > 50 | 50 |  |  |  |  | 
B4 | 71 | 18.5 | 61.5 | 240000 | 13.9 | 10.9 |  |  |  |  |  |  | 
B5 | 95.8 | 24 | 14.7 | 25800 | 30.2 | 2.4 |  |  |  |  |  |  | 
B6 | 94.5 | 3590 | 18.6 | 34300 | 9.2 | 669 | > 50 |  |  |  |  |  | 
B7 | 90.1 | 26.4 | 30.1 | 64600 | 33.7 | 7 |  |  |  |  |  |  | 
B8 | 96.5 | 5720 | 11.5 | 19400 | 11.4 | 654 | > 50 |  | 654 | 5720 | 19400 | 11.4 | 11.5
B9 | 92.3 | 27.9 | 24.7 | 49300 | 15.4 | 5.5 |  |  |  |  |  |  | 
B10 | 77.6 | 9.7 | 50.7 | 154000 | 14.3 | 4.1 |  |  |  |  |  |  | 
B11 | 99.2 | 1890 | 3.1 | 4800 | 11.1 | 57.2 | > 50 | 50 | 57.2 | 1890 | 4800 | 11.1 | 3.1
B12 | 98.9 | 1390 | 4.3 | 6800 | 17 | 59.1 | > 50 | 50 | 59.1 | 1390 | 6800 | 17 | 4.3
B13 | 95.7 | 27.2 | 15.1 | 26600 | 13.6 | 3.2 |  |  |  |  |  |  | 
B14 |  |  |  |  |  |  |  |  |  |  | 83000 |  | 35.6

Reference: patent US20160303245A1 (UNIVERSITY OF COPENHAGEN, published 2016)
